Where no end group is shown, it is not given here. The star is where a group is joined. Biotin = O=C1N[C@H]2[C@H](CS[C@H]2CCCCC(=O)*)N1
How the values were obtained:
[1] = target: human recombinant 30 kDa inhibin A (human) (UniProt P05111); assay: RIA, iodinated human inhibin A tracer vs human recombinant inhibin A
[2] = target: antiserum As #128 (sheep polyclonal, raised to the alpha subunit of human inhibin, boosted with human recombinant 30-kDa inhibin); assay: RIA, competition with iodinated inhibin
[3] = target: rabbit antiserum #1989; assay: RIA, competition with iodinated inhibin
[4] = target: antiserum As #41 (sheep polyclonal, raised to the alpha subunit of human inhibin); assay: RIA, competition with iodinated inhibin
[5] = target: antiserum As #41 (sheep polyclonal, raised to the alpha subunit of human inhibin); assay: competitive 2-site assay, peptides incubated with iodinated As #41
[6] = target: antiserum As #128 (sheep polyclonal, raised to the alpha subunit of human inhibin, boosted with human recombinant 30-kDa inhibin); assay: inhibin IFMA; #20 on As #128, buffer on As #41
[7] = target: antiserum As #128 (sheep polyclonal, raised to the alpha subunit of human inhibin, boosted with human recombinant 30-kDa inhibin); assay: two-site assay, peptide pre-incubated on As #128 coated plate, then hr-inhibin, biotinylated As #41
[8] = target: antiserum As #128 (sheep polyclonal, raised to the alpha subunit of human inhibin, boosted with human recombinant 30-kDa inhibin); assay: RIA, iodinated hr-inhibin tracer
[9] = target: antiserum As #41 (sheep polyclonal, raised to the alpha subunit of human inhibin); assay: inhibin IFMA; buffer on As #128, #30 on As #41
[10] = target: rabbit antiserum #1989; assay: RIA, iodinated hr-inhibin tracer
[11] = target: antiserum As #41 (sheep polyclonal, raised to the alpha subunit of human inhibin); assay: two-site assay, biotinylated As #41 pre-incubated with peptide, inhibin on As #128 plate
[12] = target: antibody pair of the (alpha)C IFMA: As #128 as coating antibody and As #41 as label; assay: inhibin IFMA; #5 on As #128 and #5 on As #41
[13] = target: antiserum As #41 (sheep polyclonal, raised to the alpha subunit of human inhibin); assay: inhibin IFMA; buffer on As #128, #5 on As #41
[14] = target: antiserum As #41 (sheep polyclonal, raised to the alpha subunit of human inhibin); assay: RIA, iodinated hr-inhibin tracer
[15] = target: antiserum As #128 (sheep polyclonal, raised to the alpha subunit of human inhibin, boosted with human recombinant 30-kDa inhibin); assay: inhibin IFMA; #5 on As #128, buffer on As #41

ED50 [2] [nM]	ED50 [3] [nM]	ED50 [4] [nM]	Molecule	further results
			R1 monoclonal antibody (Groome), inhibin (alpha)C subunit	ED25 (affinity for inhibin) [1]: 1.6 nM
1400	> 2500	2400	Biotin-SGSGDGGYSFKYETVPNL [biotinylated peptide #31 (Set 1) of the human (alpha)C subunit]	
500	> 2500	6200	Biotin-SGSGTPAQPYSLLPGAQP [biotinylated peptide #23 (Set 1) of the human (alpha)C subunit]	
1600	> 2500	1250	Biotin-SGSGLQRPPEEPAAHANC [biotinylated peptide #7 (Set 1) of the human (alpha)C subunit]	
	> 2500		Biotin-SGSGERWIVYPPSFIFHY [biotinylated peptide #14 (Set 1) of the human (alpha)C subunit]	
	> 2500		Biotin-SGSGELGWERWIVYPPSF [biotinylated peptide #13 (Set 1) of the human (alpha)C subunit]	
2500	> 2500	290	Biotin-SGSGSFKYETVPNLLTQH [biotinylated peptide #32 (Set 1) of the human (alpha)C subunit]	
	> 2500		Biotin-SGSGVALNISFQELGWER [biotinylated peptide #11 (Set 1) of the human (alpha)C subunit]	
60	> 2500	1050	Biotin-SGSGGGCGLHIPPNLSLP [biotinylated peptide #18 (Set 1) of the human (alpha)C subunit]	
156	> 2500	5000	Biotin-SGSGGAPPTPAQPYSLLP [biotinylated peptide #22 (Set 1) of the human (alpha)C subunit]	
	> 2500		Biotin-SGSGNCHRVALNISFQEL [biotinylated peptide #10 (Set 1) of the human (alpha)C subunit]	
2000	> 2500	5000	Biotin-SGSGAALPGTMRPLHVRT [biotinylated peptide #27 (Set 1) of the human (alpha)C subunit]	
3800	> 2500	0.015	Biotin-SGSGWSPSALRLLQRPPE [biotinylated peptide #5 (Set 1) of the human (alpha)C subunit]	% contribution (competition with inhibin) [5]: 50%
			H-CSKKGPNLSLPVPGAPPTP [non-biotinylated peptide #20 with NH2-Cys-Ser-Lys-Lys-Gly amino terminal spacer]	% suppression at 2ng inhibin [6]: 13%; % suppression in binding [7]: 23%; ED50 [8]: 150 nM
1800	> 2500	26	Biotin-SGSGALRLLQRPPEEPAA [biotinylated peptide #6 (Set 1) of the human (alpha)C subunit]	
	> 2500		Biotin-SGSGAAHANCHRVALNIS [biotinylated peptide #9 (Set 1) of the human (alpha)C subunit]	
625	> 2500	4000	Biotin-SGSGGTMRPLHVRTTSDG [biotinylated peptide #28 (Set 1) of the human (alpha)C subunit]	
			H-CSKKGRTTSDGGYSFKYET [non-biotinylated peptide #30 with NH2-Cys-Ser-Lys-Lys-Gly amino terminal spacer]	% suppression at 2ng inhibin [9]: 28%; ED50 [10]: 2500 nM

ED50 [2] [nM]	ED50 [3] [nM]	ED50 [4] [nM]	Molecule	further results
900	> 2500	6200	Biotin-SGSGPYSLLPGAQPCCAA (cysteine pairing not given here) [biotinylated peptide #24 (Set 1) of the human (alpha)C subunit]	
			H-CSKKGWSPSALRLLQRPPE [non-biotinylated peptide #5 with NH2-Cys-Ser-Lys-Lys-Gly amino terminal spacer]	% inhibition [11]: 50%; % suppression at 2ng inhibin [12]: 73%; % suppression at 2ng inhibin [13]: 67%; % suppression in binding [7]: 65%; ED50 [14]: 0.4 nM; % suppression at 2ng inhibin [15]: 55%
	> 2500		Biotin-SGSGVYPPSFIFHYCHGG [biotinylated peptide #15 (Set 1) of the human (alpha)C subunit]	
	> 2500		Biotin-SGSGSFIFHYCHGGCGLH (cysteine pairing not given here) [biotinylated peptide #16 (Set 1) of the human (alpha)C subunit]	
4800	> 2500		Biotin-SGSGPEEPAAHANCHRVA [biotinylated peptide #8 (Set 1) of the human (alpha)C subunit]	
3800	> 2500	1300	Biotin-SGSGMSWPWSPSALRLLQ [biotinylated peptide #4 (Set 1) of the human (alpha)C subunit]	
20	> 2500	3600	Biotin-SGSGPNLSLPVPGAPPTP [biotinylated peptide #20 (Set 1) of the human (alpha)C subunit]	
625	> 2500	1000	Biotin-SGSGQPCCAALPGTMRPL (cysteine pairing not given here) [biotinylated peptide #26 (Set 1) of the human (alpha)C subunit]	
< 10	> 2500	2100	Biotin-SGSGLHIPPNLSLPVPGA [biotinylated peptide #19 (Set 1) of the human (alpha)C subunit]	
	> 2500		Biotin-SGSGISFQELGWERWIVY [biotinylated peptide #12 (Set 1) of the human (alpha)C subunit]	
			human recombinant 30 kDa inhibin A (ligand) chain 1: STPLMSWPWSPSALRLLQRPPEEPAAHANCHRVALNISFQELGWERWIVYPPSFIFHYCHGGCGLHIPPNLSLPVPGAPPTPAQPYSLLPGAQPCCAALPGTMRPLHVRTTSDGGYSFKYETVPNLLTQHCACI chain 2: GLECDGKVNICCKKQFFVSFKDIGWNDWIIAPSGYHANYCEGECPSHIAGTSGSSLSFHSTVINHYRMRGHSPFANLKSCCVPTKLRPMSMLYYDDGQNIIKKDIQNMIVEECGCS	ED50 [8]: 2 nM; ED50 [10]: 0.1 nM
600	< 10	2500	Biotin-SGSGRTTSDGGYSFKYET [biotinylated peptide #30 (Set 1) of the human (alpha)C subunit]	% contribution (competition with inhibin) [5]: 50%
38000	> 2500		Biotin-SGSGSTPLMSWPWSPSAL [biotinylated peptide #3 (Set 1) of the human (alpha)C subunit]	
2500	> 2500	4000	Biotin-SGSGETVPNLLTQHCACI (cysteine pairing not given here) [biotinylated peptide #33 (Set 1) of the human (alpha)C subunit]	
156	> 2500	5000	Biotin-SGSGPLHVRTTSDGGYSF [biotinylated peptide #29 (Set 1) of the human (alpha)C subunit]	
156	> 2500	1000	Biotin-SGSGLPVPGAPPTPAQPY [biotinylated peptide #21 (Set 1) of the human (alpha)C subunit]	
10000	> 2500	1050	Biotin-SGSGHYCHGGCGLHIPPN (cysteine pairing not given here) [biotinylated peptide #17 (Set 1) of the human (alpha)C subunit]	
2000	> 2500	5000	Biotin-SGSGLPGAQPCCAALPGT (cysteine pairing not given here) [biotinylated peptide #25 (Set 1) of the human (alpha)C subunit]	

— patent publication US20030162229A1
